Test [1] addresses T1, His-tag PD-L1 antigen (Homo sapiens, UniProt Q9NZQ7). Put plainly: ELISA.
In test [2] the target is T2, PD-L1 on CD47+/PD-L1+ tumor cells (RKO, ES-2, HT-1080, HCC827) (human (endogenous in RKO, ES-2, …, UniProt Q9NZQ7)). Put plainly: flow cytometry on cells.
Test [3] deals with T3, PD-L1 on CHO-PD-L1 cells (human, UniProt Q9NZQ7). Put plainly: flow cytometry on cells. For orientation: Flow cytometry measures light scatter and fluorescence of single cells or particles in a stream.
T3 sequence (Q9NZQ7 19-290): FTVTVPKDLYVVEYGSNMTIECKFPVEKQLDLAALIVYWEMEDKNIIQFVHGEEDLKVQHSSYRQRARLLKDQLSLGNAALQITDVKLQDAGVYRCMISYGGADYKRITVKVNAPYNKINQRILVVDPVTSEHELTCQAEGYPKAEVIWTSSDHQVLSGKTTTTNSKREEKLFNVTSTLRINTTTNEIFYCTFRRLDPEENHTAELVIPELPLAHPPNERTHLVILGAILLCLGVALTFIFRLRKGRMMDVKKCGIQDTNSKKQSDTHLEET
Test [4] addresses mFc-tag CD47 antigen (human) (UniProt Q08722). Put plainly: ELISA.
In test [5] the target is T1, His-tag PD-L1 antigen. Put plainly: BLI.
The target in test [6] is mFc-tag CD47 antigen (human) (UniProt Q08722). Put plainly: BLI. On the technique in general: Biolayer interferometry detects binding as a change in optical thickness at a sensor tip.
Chain of mFc-tag CD47 antigen (human) (Q08722 19-323): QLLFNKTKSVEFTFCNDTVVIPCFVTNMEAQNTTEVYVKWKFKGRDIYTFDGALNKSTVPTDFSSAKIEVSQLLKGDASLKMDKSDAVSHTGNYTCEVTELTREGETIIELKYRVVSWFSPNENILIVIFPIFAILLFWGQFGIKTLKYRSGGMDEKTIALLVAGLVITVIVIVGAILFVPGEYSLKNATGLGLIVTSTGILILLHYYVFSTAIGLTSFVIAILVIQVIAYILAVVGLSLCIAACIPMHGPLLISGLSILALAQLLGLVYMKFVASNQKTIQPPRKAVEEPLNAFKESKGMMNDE
Test [7] deals with T2, PD-L1 on CD47+/PD-L1+ tumor cells (RKO, …). Put plainly: flow cytometry on cells. This is another data set of the same source.
Test [8] has as its target T3, PD-L1 on CHO-PD-L1 cells. Put plainly: flow cytometry on cells. This is another data set of the same source.

Drawing on paper PMC11564011 (Heliyon, 2024), this text covers EC50, IC50 and Kd for one molecule.

The term EC50 denotes the concentration that produces a half-maximal response. A lower EC50 goes with higher potency in that assay. As a reminder, the IC50 is the midpoint of a concentration-inhibition curve. For orientation: Kd means a measure of binding affinity in units of concentration. A higher Kd goes with weaker binding.

T2 sequence (Q9NZQ7 19-290): as the sequence (Q9NZQ7 19-290) above
T1 sequence (Q9NZQ7 19-238): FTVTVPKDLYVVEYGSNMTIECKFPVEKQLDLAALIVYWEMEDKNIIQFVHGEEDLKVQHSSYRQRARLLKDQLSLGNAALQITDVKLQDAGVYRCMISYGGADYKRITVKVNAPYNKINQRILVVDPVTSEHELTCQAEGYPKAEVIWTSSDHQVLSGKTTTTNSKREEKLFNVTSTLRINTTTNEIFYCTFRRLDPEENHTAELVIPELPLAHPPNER

B1: IMM2520 (bispecific antibody, V domains shown)
VH: QVQLVQSGAEVKKPGASVKVSCKASGYTFTSNWMHWVRQAPGQGLEWMGMIHPNSGSSNYNEKFKSRVTMTRDTSTSTVYMELSSLRSEDTAVYYCARSYYGSSPYYFDYWGQGTLVTVSS
VL: DIQMTQSPSSLSASVGDRVTITCRASQDIINYLNWYQQKPGKAPKLLIYYTSRLHSGVPSRFSGSGSGTDFTFTISSLQPEDIATYYCQQGDTLPWTFGQGTKVEIK
As for B1, the EC50 in test [1] is 0.456 nM; in test [2], 0.145 nM; in test [4], 0.079 nM; in test [8], 0.845 nM. For the same molecule, the figures for the IC50 in test [3] and in test [7] were 0.121 nM and 0.0123 nM, respectively. The Kd in test [5] turned out to be 0.576 nM; in test [6], 2.49 nM.
